System: Escherichia coli TOP10
Assay: shrunken log2 fold change of peptide-encoding DNA abundance (4.5 h post-induction vs induction); higher = less antimicrobial activity (less host growth inhibition)
Details: time post-induction: 4.5 h; library: site-saturation at positions 5, 18, 19, 20
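Note: peptides expressed intracellularly from a pBAD plasmid library in pooled LB shake-flask culture, induced with 0.3% L-arabinose, DNA abundance read by NGS, three biological replicates, DESeq2 with apeglm shrinkage.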

RRIRFRPPRLPRPRPRPYQAPRP
shrunken log2 fold change: -0.303

RRIRFRPPRLPRPRPRPYQWPRP
shrunken log2 fold change: -0.655

RRIRFRPPRLPRPRPRPYSIPRP
shrunken log2 fold change: -0.186

RRIRFRPPRLPRPRPRPYSYPRP
shrunken log2 fold change: -0.268

RRIRFRPPRLPRPRPRPYVAPRP
shrunken log2 fold change: -0.62

RRIRFRPPRLPRPRPRPYVPPRP
shrunken log2 fold change: -0.238

RRIRFRPPRLPRPRPRPYWCPRP
shrunken log2 fold change: -0.399

RRIRFRPPRLPRPRPRPYWSPRP
shrunken log2 fold change: -0.428

RRIRFRPPRLPRPRPRPYWVPRP
shrunken log2 fold change: -0.683

RRIRGRPPRLPRPRPRPAAMPRP
shrunken log2 fold change: 1.54

RRIRGRPPRLPRPRPRPAAYPRP
shrunken log2 fold change: 0.929

RRIRGRPPRLPRPRPRPACCPRP
shrunken log2 fold change: 0.875

RRIRGRPPRLPRPRPRPACKPRP
shrunken log2 fold change: 0.923

RRIRGRPPRLPRPRPRPACSPRP
shrunken log2 fold change: 0.773

RRIRGRPPRLPRPRPRPADFPRP
shrunken log2 fold change: 0.149

RRIRGRPPRLPRPRPRPAGAPRP
shrunken log2 fold change: 1.16

RRIRGRPPRLPRPRPRPAHCPRP
shrunken log2 fold change: 1.06

RRIRGRPPRLPRPRPRPAHFPRP
shrunken log2 fold change: 0.238

RRIRGRPPRLPRPRPRPAHPPRP
shrunken log2 fold change: 0.754

RRIRGRPPRLPRPRPRPAIVPRP
shrunken log2 fold change: 0.0899

RRIRGRPPRLPRPRPRPAKAPRP
shrunken log2 fold change: 0.233

RRIRGRPPRLPRPRPRPANQPRP
shrunken log2 fold change: 0.329

RRIRGRPPRLPRPRPRPAPWPRP
shrunken log2 fold change: 0.891

RRIRGRPPRLPRPRPRPASIPRP
shrunken log2 fold change: 0.371

RRIRGRPPRLPRPRPRPATLPRP
shrunken log2 fold change: 0.393

RRIRGRPPRLPRPRPRPAVRPRP
shrunken log2 fold change: 0.312

RRIRGRPPRLPRPRPRPAWFPRP
shrunken log2 fold change: 0.652

RRIRGRPPRLPRPRPRPAWYPRP
shrunken log2 fold change: 0.405

RRIRGRPPRLPRPRPRPAYIPRP
shrunken log2 fold change: -0.156

RRIRGRPPRLPRPRPRPAYYPRP
shrunken log2 fold change: -0.0149

RRIRGRPPRLPRPRPRPCCHPRP
shrunken log2 fold change: 0.345

RRIRGRPPRLPRPRPRPCDKPRP
shrunken log2 fold change: 0.297

RRIRGRPPRLPRPRPRPCFFPRP
shrunken log2 fold change: 0.392

RRIRGRPPRLPRPRPRPCFGPRP
shrunken log2 fold change: 0.262

RRIRGRPPRLPRPRPRPCHGPRP
shrunken log2 fold change: -0.355

RRIRGRPPRLPRPRPRPCHVPRP
shrunken log2 fold change: -0.172

RRIRGRPPRLPRPRPRPCICPRP
shrunken log2 fold change: 0.102

RRIRGRPPRLPRPRPRPCIEPRP
shrunken log2 fold change: 0.0449

RRIRGRPPRLPRPRPRPCIHPRP
shrunken log2 fold change: 0.00637

RRIRGRPPRLPRPRPRPCISPRP
shrunken log2 fold change: -0.273

RRIRGRPPRLPRPRPRPCIVPRP
shrunken log2 fold change: 0.201

RRIRGRPPRLPRPRPRPCKTPRP
shrunken log2 fold change: 0.0121

RRIRGRPPRLPRPRPRPCLQPRP
shrunken log2 fold change: 0.264

RRIRGRPPRLPRPRPRPCMAPRP
shrunken log2 fold change: 0.703

RRIRGRPPRLPRPRPRPCSNPRP
shrunken log2 fold change: 0.275

RRIRGRPPRLPRPRPRPCTLPRP
shrunken log2 fold change: 0.321

RRIRGRPPRLPRPRPRPCWFPRP
shrunken log2 fold change: 0.584

RRIRGRPPRLPRPRPRPCYCPRP
shrunken log2 fold change: -0.164

RRIRGRPPRLPRPRPRPDATPRP
shrunken log2 fold change: 4.21

RRIRGRPPRLPRPRPRPDAVPRP
shrunken log2 fold change: 1.81

RRIRGRPPRLPRPRPRPDCHPRP
shrunken log2 fold change: 0.217

RRIRGRPPRLPRPRPRPDCQPRP
shrunken log2 fold change: 0.662

RRIRGRPPRLPRPRPRPDCVPRP
shrunken log2 fold change: 1.39

RRIRGRPPRLPRPRPRPDESPRP
shrunken log2 fold change: 0.0316

RRIRGRPPRLPRPRPRPDEVPRP
shrunken log2 fold change: 0.885

RRIRGRPPRLPRPRPRPDFGPRP
shrunken log2 fold change: 0.0741

RRIRGRPPRLPRPRPRPDFIPRP
shrunken log2 fold change: 0.157

RRIRGRPPRLPRPRPRPDFRPRP
shrunken log2 fold change: -0.043

RRIRGRPPRLPRPRPRPDFWPRP
shrunken log2 fold change: 0.593

RRIRGRPPRLPRPRPRPDGFPRP
shrunken log2 fold change: 0.171

RRIRGRPPRLPRPRPRPDIEPRP
shrunken log2 fold change: 0.735

RRIRGRPPRLPRPRPRPDIGPRP
shrunken log2 fold change: 0.663

RRIRGRPPRLPRPRPRPDINPRP
shrunken log2 fold change: 1.68

RRIRGRPPRLPRPRPRPDKVPRP
shrunken log2 fold change: 0.32

RRIRGRPPRLPRPRPRPDLIPRP
shrunken log2 fold change: 0.87

RRIRGRPPRLPRPRPRPDLPPRP
shrunken log2 fold change: 0.921

RRIRGRPPRLPRPRPRPDLVPRP
shrunken log2 fold change: 0.529

RRIRGRPPRLPRPRPRPDMDPRP
shrunken log2 fold change: 0.00342

RRIRGRPPRLPRPRPRPDMEPRP
shrunken log2 fold change: 0.864

RRIRGRPPRLPRPRPRPDNRPRP
shrunken log2 fold change: -0.0893

RRIRGRPPRLPRPRPRPDPPPRP
shrunken log2 fold change: 1.14

RRIRGRPPRLPRPRPRPDPYPRP
shrunken log2 fold change: -0.0305

RRIRGRPPRLPRPRPRPDRAPRP
shrunken log2 fold change: 1.04

RRIRGRPPRLPRPRPRPDSGPRP
shrunken log2 fold change: 0.128

RRIRGRPPRLPRPRPRPDSPPRP
shrunken log2 fold change: 0.136

RRIRGRPPRLPRPRPRPDSSPRP
shrunken log2 fold change: 0.217

RRIRGRPPRLPRPRPRPDTDPRP
shrunken log2 fold change: 1.01

RRIRGRPPRLPRPRPRPDTEPRP
shrunken log2 fold change: -0.0629

RRIRGRPPRLPRPRPRPDTMPRP
shrunken log2 fold change: 0.00209

RRIRGRPPRLPRPRPRPDVDPRP
shrunken log2 fold change: 1.82

RRIRGRPPRLPRPRPRPDVHPRP
shrunken log2 fold change: 0.867

RRIRGRPPRLPRPRPRPDWCPRP
shrunken log2 fold change: 1.37

RRIRGRPPRLPRPRPRPDWKPRP
shrunken log2 fold change: 0.000125

RRIRGRPPRLPRPRPRPDWQPRP
shrunken log2 fold change: 0.336

RRIRGRPPRLPRPRPRPDYDPRP
shrunken log2 fold change: 0.157

RRIRGRPPRLPRPRPRPEAFPRP
shrunken log2 fold change: 1.86

RRIRGRPPRLPRPRPRPEAGPRP
shrunken log2 fold change: 1.21

RRIRGRPPRLPRPRPRPECIPRP
shrunken log2 fold change: 1.67

RRIRGRPPRLPRPRPRPEDSPRP
shrunken log2 fold change: 1.39

RRIRGRPPRLPRPRPRPEFFPRP
shrunken log2 fold change: 0.891

RRIRGRPPRLPRPRPRPEFKPRP
shrunken log2 fold change: 0.741

RRIRGRPPRLPRPRPRPEFNPRP
shrunken log2 fold change: 0.669

RRIRGRPPRLPRPRPRPEFSPRP
shrunken log2 fold change: 1.15

RRIRGRPPRLPRPRPRPEGCPRP
shrunken log2 fold change: 1.65

RRIRGRPPRLPRPRPRPEGMPRP
shrunken log2 fold change: 1.34

RRIRGRPPRLPRPRPRPEGRPRP
shrunken log2 fold change: 1.39

RRIRGRPPRLPRPRPRPEHAPRP
shrunken log2 fold change: 2.78

RRIRGRPPRLPRPRPRPEIPPRP
shrunken log2 fold change: 0.196

RRIRGRPPRLPRPRPRPEISPRP
shrunken log2 fold change: 1.5

RRIRGRPPRLPRPRPRPEKGPRP
shrunken log2 fold change: 0.136

RRIRGRPPRLPRPRPRPEKLPRP
shrunken log2 fold change: 0.844

RRIRGRPPRLPRPRPRPEKPPRP
shrunken log2 fold change: 0.316

RRIRGRPPRLPRPRPRPEKVPRP
shrunken log2 fold change: 0.417

RRIRGRPPRLPRPRPRPELVPRP
shrunken log2 fold change: 1.58

RRIRGRPPRLPRPRPRPEMQPRP
shrunken log2 fold change: 1.41

RRIRGRPPRLPRPRPRPEMTPRP
shrunken log2 fold change: 3.26

RRIRGRPPRLPRPRPRPENKPRP
shrunken log2 fold change: 0.32

RRIRGRPPRLPRPRPRPENTPRP
shrunken log2 fold change: 0.841

RRIRGRPPRLPRPRPRPEPWPRP
shrunken log2 fold change: 0.655

RRIRGRPPRLPRPRPRPEQMPRP
shrunken log2 fold change: 0.152

RRIRGRPPRLPRPRPRPESDPRP
shrunken log2 fold change: 2.08

RRIRGRPPRLPRPRPRPETGPRP
shrunken log2 fold change: 0.81

RRIRGRPPRLPRPRPRPETMPRP
shrunken log2 fold change: 1.14

RRIRGRPPRLPRPRPRPEWAPRP
shrunken log2 fold change: 1.07

RRIRGRPPRLPRPRPRPEWNPRP
shrunken log2 fold change: 1.71

RRIRGRPPRLPRPRPRPEWRPRP
shrunken log2 fold change: 1.15

RRIRGRPPRLPRPRPRPEYAPRP
shrunken log2 fold change: 1.26

RRIRGRPPRLPRPRPRPEYVPRP
shrunken log2 fold change: 0.244

RRIRGRPPRLPRPRPRPEYWPRP
shrunken log2 fold change: 1.03

RRIRGRPPRLPRPRPRPFASPRP
shrunken log2 fold change: 0.215

RRIRGRPPRLPRPRPRPFCNPRP
shrunken log2 fold change: 0.243

RRIRGRPPRLPRPRPRPFCQPRP
shrunken log2 fold change: 0.0716

RRIRGRPPRLPRPRPRPFDCPRP
shrunken log2 fold change: -0.208

RRIRGRPPRLPRPRPRPFDHPRP
shrunken log2 fold change: -0.0514

RRIRGRPPRLPRPRPRPFEAPRP
shrunken log2 fold change: 0.727

RRIRGRPPRLPRPRPRPFFRPRP
shrunken log2 fold change: 0.211

RRIRGRPPRLPRPRPRPFGFPRP
shrunken log2 fold change: 0.828

RRIRGRPPRLPRPRPRPFGMPRP
shrunken log2 fold change: 0.228

RRIRGRPPRLPRPRPRPFGPPRP
shrunken log2 fold change: 0.355

RRIRGRPPRLPRPRPRPFHFPRP
shrunken log2 fold change: 0.119

RRIRGRPPRLPRPRPRPFHGPRP
shrunken log2 fold change: 0.0325

RRIRGRPPRLPRPRPRPFHRPRP
shrunken log2 fold change: -0.118

RRIRGRPPRLPRPRPRPFICPRP
shrunken log2 fold change: 0.268

RRIRGRPPRLPRPRPRPFIVPRP
shrunken log2 fold change: -0.00433

RRIRGRPPRLPRPRPRPFKYPRP
shrunken log2 fold change: -0.221

RRIRGRPPRLPRPRPRPFLMPRP
shrunken log2 fold change: 0.364

RRIRGRPPRLPRPRPRPFNSPRP
shrunken log2 fold change: 0.0167

RRIRGRPPRLPRPRPRPFPLPRP
shrunken log2 fold change: 0.227

RRIRGRPPRLPRPRPRPFPPPRP
shrunken log2 fold change: 0.378

RRIRGRPPRLPRPRPRPFQPPRP
shrunken log2 fold change: 0.0927

RRIRGRPPRLPRPRPRPFQQPRP
shrunken log2 fold change: -0.0372

RRIRGRPPRLPRPRPRPFSDPRP
shrunken log2 fold change: 0.165

RRIRGRPPRLPRPRPRPFSKPRP
shrunken log2 fold change: 0.164

RRIRGRPPRLPRPRPRPFWDPRP
shrunken log2 fold change: 0.322

RRIRGRPPRLPRPRPRPGAMPRP
shrunken log2 fold change: 1.25

RRIRGRPPRLPRPRPRPGGWPRP
shrunken log2 fold change: 1.58

RRIRGRPPRLPRPRPRPGISPRP
shrunken log2 fold change: 0.0483

RRIRGRPPRLPRPRPRPGLGPRP
shrunken log2 fold change: 1.67

RRIRGRPPRLPRPRPRPGLYPRP
shrunken log2 fold change: 0.341

RRIRGRPPRLPRPRPRPGMKPRP
shrunken log2 fold change: 0.484
